{
  "source": "the nanobody polyreactivity screen of Harvey et al. (2022)",
  "data": [
    {"assay": "yeast display, Sf9 membrane polyspecificity reagent, FACS + sequencing; frameworks hold sequencing errors", "procedure,_shortened": "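Galactose induction of a Saccharomyces cerevisiae BJ5465 synthetic nanobody display library ran 36–48 hours. The cells were then stained for 1 hour at 4 °C with 10% biotinylated, detergent-solubilized Sf9 membrane reagent, pulled down on streptavidin microbeads and FACS-sorted into low and high (top ~1%) gates on expression and reagent-binding fluorescence. Labels for polyreactivity follow the gate of origin.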", "values": [
      {"sequence": "QVQLVESGGGLVQAGGSLRLSCAASGSIFVQYAMGWYRQAPGKERELVATISSSGGSTYYADSVKGRFTISRDNAKNTVYLQMNRLKPEDTAVYYCAADWTLDPSYGYYADDYWGQGTQVTVSS", "polyreactivity (PSR sort gate)": "low polyreactivity"},
      {"sequence": "QVQLVESGGGLVQAGGSLRLSCAASGSIFVRNAMGWYRQAPGKERELVAAISWRGGSTYYADSVKGRFTISRDNAKNTVYLQMNSLKPEDTAGYYCAARRWSPRSGLGYGYWGQGTQVTVSS", "polyreactivity (PSR sort gate)": "high polyreactivity"},
      {"sequence": "QVQLVESGGGLVQAGGSLRLSCAASGSIFVRNAMGWYRQAPGKERELVAGISASGGSTYYADSVKGRFTISRDNAKNTVYLQMNSLKPEDTAVYYCANKVSTRFARYRYDYWGQGTQVTVSS", "polyreactivity (PSR sort gate)": "high polyreactivity"},
      {"sequence": "QVQLVESGGGLVQAGGSLRLSCAASGSIFVRNGMGWYRQAPGKERELVASFTSGTITYYADSVKGRFTISRDNARNTVYLQMNRLKPDDTAVYYCAARRDRGRVKFYYWGQGTQVTVSS", "polyreactivity (PSR sort gate)": "high polyreactivity"},
      {"sequence": "QVQLVESGGGLVQAGGSLRLSCAASGSIFVRNTMGWYRQAPGKERELVATISSGGRTYYADSVKGRFTISRDNAKNTVYLQMNSLKPEETAVYYCAAGYSYAQYSYPFLSFAFGYWGQGTQVTVSS", "polyreactivity (PSR sort gate)": "high polyreactivity"},
      {"sequence": "QVQLVESGGGLVQAGGSLRLSCAASGSIFVRNVMGWYRQAPGKERELVAAISGSGGSTYYADSVKGRFTISRDNAKNTVYLQMNSLKPEDTAVYYCAAPRNLYGVYSYYYWGQGTQVTVSS", "polyreactivity (PSR sort gate)": "high polyreactivity"},
      {"sequence": "QVQLVESGGGLVQAGGSLRLSCAASGSIFVRYDMGWYRQAPGKERELVAAISWNGGRTYYADSVKGRFTISRDNAKNTVYLQMNSLKPEDTAVYYCNAVSKGLGSGLDYWGQGTQVTVSS", "polyreactivity (PSR sort gate)": "high polyreactivity"},
      {"sequence": "QVQLVESGGGLVQAGGSLRLSCAASGSIFVSNAMGWSRPAPGKDRELVAGINYSGGSTYYADSVKGRFTISRDNAKNTVYLQLTSLKPEDTAVYYCARRRPYQWPYNYWGQGTQVTVSS", "polyreactivity (PSR sort gate)": "high polyreactivity"},
      {"sequence": "QVQLVESGGGLVQAGGSLRLSCAASGSIFVSNAMGWYRQAPGKERELVAAISGGRSTYYADSVKGRFTISRDNAKNTVYLQMNSLKPEDTAVYYCAKKGGHRTYGYDSWGQGTQVTVSS", "polyreactivity (PSR sort gate)": "low polyreactivity"},
      {"sequence": "QVQLVESGGGLVQAGGSLRLSCAASGSIFVSNVMGWYRQSPGKERELVAAISSSGGRTNYADSVKGRFTISRDNAKNTVYLQMNSLKPEDTAVYYCAKAGRYANLPYGYWGQGTQVTVSS", "polyreactivity (PSR sort gate)": "high polyreactivity"},
      {"sequence": "QVQLVESGGGLVQAGGSLRLSCAASGSIFVSYAMGWYRQAPGKERELVAAISRSGGRTYYADSVKGRFTISRDNAKNTVYLQMNSLKPEDTAVYYCAADYTKSSSPWPGYYWGQGTQVTVSS", "polyreactivity (PSR sort gate)": "high polyreactivity"},
      {"sequence": "QVQLVESGGGLVQAGGSLRLSCAASGSIFVSYAMGWYRQAPGKERELVAAITRSGGSTYYADSVKGRFTISRDNAKNTVYLQMNSLKPEDTAVYYCAARSYLGAYRRYYWGQGTQVNVSS", "polyreactivity (PSR sort gate)": "high polyreactivity"},
      {"sequence": "QVQLVESGGGLVQAGGSLRLSCAASGSIFVSYAMGWYRQAPGKERELVAAITSIGTRTYYADSVKGRFTISRDNAKNTVYLQINSLKPEDTAVYYCNAPRFWSRHGLRDYWGQVTQVTVSS", "polyreactivity (PSR sort gate)": "high polyreactivity"},
      {"sequence": "QVQLVESGGGLVQAGGSLRLSCAASGSIFVTNAMGWYRQAPGKERELVAAIRGGGGSTYYADSVKGRFTISRDNAKNTVYLQMNSLKPEDTAVYYCNADRRGYLQSEMDYWGQGTQVTVSS", "polyreactivity (PSR sort gate)": "low polyreactivity"},
      {"sequence": "QVQLVESGGGLVQAGGSLRLSCAASGSIFVTYALGWYRQAPGKERELVAVLTWGGGSTYYADSVKGRFTISRDNAKNTVYLQMNSLKPEDTAVYYCAKDSYYYRRDVTVDYWGQGTQVTVSS", "polyreactivity (PSR sort gate)": "low polyreactivity"},
      {"sequence": "QVQLVESGGGLVQAGGSLRLSCAASGSIFVTYAMGWYRQAPGKERELVARITSGGSTYYADSVKGRFTISRDNAKNTVYLQMNSLKPEDTAVYYCAARRWLRYDLDYGGQGTQVTVSS", "polyreactivity (PSR sort gate)": "low polyreactivity"},
      {"sequence": "QVQLVESGGGLVQAGGSLRLSCAASGSIFVTYAMGWYRQAPGKERELVASISWRGVSTRYADSVKGRFTISRDNAKNTVYLQMNSLKPEDTAVDYCAAVYRRTRSGIFDYWGQGTQVTVSS", "polyreactivity (PSR sort gate)": "high polyreactivity"},
      {"sequence": "QVQLVESGGGLVQAGGSLRLSCAASGSIFVVNAMGWYRPAPGKERELVAAINWSDGSTYYADSVKGRFTISRDTAKNTVYLQLTSLKPEDTAVDYCAAEVPYFYFEGWNYDYWGQGTQVTVSS", "polyreactivity (PSR sort gate)": "high polyreactivity"},
      {"sequence": "QVQLVESGGGLVQAGGSLRLSCAASGSIFVVYAMGWYRQAPGKERELVASIRTGGSTNYADSVKGRFTISRDNAKNTVYLQMNSLKPEDTAVYYCAAASWNCNRHYYVARYYYWGQGTQVNVSS", "polyreactivity (PSR sort gate)": "high polyreactivity"},
      {"sequence": "QVQLVESGGGLVQAGGSLRLSCAASGSIFVVYAMGWYRQAPGKERELVAVITDDGSTYYADSVKGRFTISRDNAKNTVYLQMNSLKPEDTAVYYCAAEGAATPDFGSWYYYWGQGTQVTVSS", "polyreactivity (PSR sort gate)": "low polyreactivity"},
      {"sequence": "QVQLVESGGGLVQAGGSLRLSCAASGSIFVWNAMGWYIQAPRKERELVAAISYTDGSTYYADSVKGRFTISRDNAKNTVYLQMNSMNPEDTAVYYCAASTLKDIYLWFRVDYWGQCTQVTVSS", "polyreactivity (PSR sort gate)": "low polyreactivity"},
      {"sequence": "QVQLVESGGGLVQAGGSLRLSCAASGSIFVYNAMGWYRQAPGKERELVAAISQRGGSTYYADSVKGRFTISRDNAKNTVYLQMNSLKPEDTADYYCAAGPGDSGDDYWGQGTQVTVSS", "polyreactivity (PSR sort gate)": "low polyreactivity"},
      {"sequence": "QVQLVESGGGLVQAGGSLRLSCAASGSIFVYNAMGWYRQATGKEREMVAVINKSGDTTYYADSVKGRFTISRDNAKNTVYLQMNSLKPEDTAVYYCNASGEVLAAVVSYDYWGQGTQVTVSS", "polyreactivity (PSR sort gate)": "low polyreactivity"},
      {"sequence": "QVQLVESGGGLVQAGGSLRLSCAASGSIFVYYAMGWYRQAPGKERELVAAINSGSITKYADSVKGRFTISRDNAKNTVYLQMNSLKPEYTAVYYCAARYDNTYRTETSYPRYYSWGQGTQVTVSS", "polyreactivity (PSR sort gate)": "high polyreactivity"},
      {"sequence": "QVQLVESGGGLVQAGGSLRLSCAASGSIFVYYTMGWYRQAPGKVRELVATITFRGNTYYADSVKGRFTISRDNAKNTVYLQMNSLKPEDTAVSYCAATRYGHRYYYRPYEYWGQGTQVTVSS", "polyreactivity (PSR sort gate)": "high polyreactivity"},
      {"sequence": "QVQLVESGGGLVQAGGSLRLSCAASGSIFWGNAMGWYRQAPGKERELVADISGGDTYYADSVKGRFTISRDNAKNTVYLQMNSLKPEDTAVYYCAADVWQYFYPYGYYYWGLGTQVTVSS", "polyreactivity (PSR sort gate)": "high polyreactivity"},
      {"sequence": "QVQLVESGGGLVQAGGSLRLSCAASGSIFWGYAMGWYRQAPGKERELVAAIRVSGGSTYYADSVKGRFTISRDNAKNTVYLQMNSLKPEDTAVYYCARDTWGGFSSADNYWGQGTQVTVSS", "polyreactivity (PSR sort gate)": "high polyreactivity"},
      {"sequence": "QVQLVESGGGLVQAGGSLRLSCAASGSIFWIYAMGWYRQAPGKERELVATITRRGGSTYYADSVKGRFTISRDNAKNTVYLQMNSLKPEDTAVYYCATEPGYTFLTSYKYDYWGQGTQVTVSS", "polyreactivity (PSR sort gate)": "low polyreactivity"},
      {"sequence": "QVQLVESGGGLVQAGGSLRLSCAASGSIFWLYAMGWYRQAPGKESELVAAIDSGDSTKYADSVKGRFTISRDNAKNTVYLQMNSLKPEDTAVYYCNASRRYHVRAPYDYWGQGTQVTVSS", "polyreactivity (PSR sort gate)": "low polyreactivity"},
      {"sequence": "QVQLVESGGGLVQAGGSLRLSCAASGSIFWPYAMGWYRPAPGKERELVATISWNGGSTYYADSVKGRFTISRDNAKNTVYLQMNSLKPEDTAVYYCAAEVYFNQYGGMDYWGQGTQVTVSS", "polyreactivity (PSR sort gate)": "low polyreactivity"},
      {"sequence": "QVQLVESGGGLVQAGGSLRLSCAASGSIFWPYAMGWYRQAPGKERELVAAISSSTGRTYYADSVKGRFTLSRDNEKNTVYLQMNSLKPEDTAVDYCAADIGTTSYRYYYWGQGTQVTVSS", "polyreactivity (PSR sort gate)": "high polyreactivity"},
      {"sequence": "QVQLVESGGGLVQAGGSLRLSCAASGSIFWQYAMGWYRQAPGTERELVAAISSRGGSTYYADSVKGRFTISRDNAKNTVYLQMNTLKPEDTAVYYCAAHSVVRSYAARDSGYDYWGQGTQVTVSS", "polyreactivity (PSR sort gate)": "high polyreactivity"},
      {"sequence": "QVQLVESGGGLVQAGGSLRLSCAASGSIFWRNAMGWYRQAPGKERELVAVISSGGRTYYADSVKGRFTISRDNAKNTVYLQMNSLKPEDTAVYYCAAQYHGGISQRLYYWGQGTQVTVSS", "polyreactivity (PSR sort gate)": "high polyreactivity"},
      {"sequence": "QVQLVESGGGLVQAGGSLRLSCAASGSIFWRNTMGWYRQAPGKEREFVAAISSNGGGTYYADSVKGRFTISRDKAKNTVYLQTNSLKPEDTAVYYFAATAGGSYKLWYYYWGQGTQVTVSS", "polyreactivity (PSR sort gate)": "high polyreactivity"},
      {"sequence": "QVQLVESGGGLVQAGGSLRLSCAASGSIFWRYAMGWYRQAPGKERELVATITSRGGSTYYADSVKGRFTISRDNAKNTVYLQMNSLKQEDTAVYYCAAGWLPKYGYWGQGTQVTVSS", "polyreactivity (PSR sort gate)": "low polyreactivity"},
      {"sequence": "QVQLVESGGGLVQAGGSLRLSCAASGSIFWSNAMGWYRQAPGKERELVAASSSGGSTYADSVKGRFTISRDTAKNTVYLQMNSLKPEDNAVYDCNARDYSVGRNDYWGQGTQVTVSS", "polyreactivity (PSR sort gate)": "low polyreactivity"},
      {"sequence": "QVQLVESGGGLVQAGGSLRLSCAASGSIFWSNAMGWYRQAPGKESELVATIDDDVGSTYYADSVMGRFTISRDNAKNTVYLQMNSLKPEDTAVYYCAADSVYYVIPYEYWGQGTQVTVSS", "polyreactivity (PSR sort gate)": "low polyreactivity"},
      {"sequence": "QVQLVESGGGLVQAGGSLRLSCAASGSIFWSYAMGWYIQAPGTERELVAAITTDGGTNYADSVKGRFTISLDNAKNTVYLLMKSLKPDDTAVYYCAGDTDPNPQIDYTLTMDYWGQGTEVTVSS", "polyreactivity (PSR sort gate)": "low polyreactivity"},
      {"sequence": "QVQLVESGGGLVQAGGSLRLSCAASGSIFWTYAMGWYRQAPGKEREFVAAITFNYGSTYYADSVKGRFTISRDTAKNTVYLQMNSVKPEDTAVYYCNADTWYYYNFWSYIEYDYWGQGTQVTVSS", "polyreactivity (PSR sort gate)": "high polyreactivity"},
      {"sequence": "QVQLVESGGGLVQAGGSLRLSCAASGSIFWVNAMGWYRQAPGQVSELVAAINYSDGSTSYADSVKGRFTISRDNAKNTVYLQMNSLKPEDTAVYYCNAESFELMYYWGQGTQVTVSS", "polyreactivity (PSR sort gate)": "low polyreactivity"},
      {"sequence": "QVQLVESGGGLVQAGGSLRLSCAASGSIFWVYAMGWYRQAPGKERELVAAISQSGGSTYYADSVKGRFTISRDNAKNTVYLQMNSLKPEYTAVYYCAAYVRGQNYDYWGQGTQVTVSS", "polyreactivity (PSR sort gate)": "high polyreactivity"},
      {"sequence": "QVQLVESGGGLVQAGGSLRLSCAASGSIFWWNAMGGYRQAPGKERELVAAINWSTGRTYYADSVKGRFTISRDNAKNTVYLQMNSLKPEDTAVYYCAASFVGALGYDYWGQGTQVTVSS", "polyreactivity (PSR sort gate)": "low polyreactivity"},
      {"sequence": "QVQLVESGGGLVQAGGSLRLSCAASGSIFWWYGMGWYRQAPGKEREFVADITSGGGTYYADSVKGRFTISRDNAKNTVYLQMNSLKPEDTAVYYCAADVRAYRFDYYFDYWGQGTQVTVSS", "polyreactivity (PSR sort gate)": "low polyreactivity"}
    ]}
  ]
}
